According to patent US20220396612A1 (UNIVERSIT DE TOURS, published 2022):

T1: virus-like particles (VLPs) of BK polyomavirus VP-1 protein, serotype II (BK virus (BKPyV), serotype II, UniProt P14996 1-362)
T1 construct: native VLPs; also called VLP II
T1 chain: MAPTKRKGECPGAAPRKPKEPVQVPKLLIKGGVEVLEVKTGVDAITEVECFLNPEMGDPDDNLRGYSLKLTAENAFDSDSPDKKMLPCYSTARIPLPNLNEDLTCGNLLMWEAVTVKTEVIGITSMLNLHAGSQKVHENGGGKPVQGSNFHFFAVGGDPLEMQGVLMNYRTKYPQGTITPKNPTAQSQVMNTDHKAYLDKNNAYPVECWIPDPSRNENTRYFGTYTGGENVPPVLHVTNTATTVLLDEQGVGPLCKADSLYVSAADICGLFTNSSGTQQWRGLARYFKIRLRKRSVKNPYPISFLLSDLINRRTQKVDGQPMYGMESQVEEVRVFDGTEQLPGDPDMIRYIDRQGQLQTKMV

T2: virus-like particles (VLPs) of BK polyomavirus VP-1 protein, serotype IV (BK virus (BKPyV), serotype IV, UniProt P14996 1-362)
T2 construct: native VLPs; also called VLP IV
T2 chain: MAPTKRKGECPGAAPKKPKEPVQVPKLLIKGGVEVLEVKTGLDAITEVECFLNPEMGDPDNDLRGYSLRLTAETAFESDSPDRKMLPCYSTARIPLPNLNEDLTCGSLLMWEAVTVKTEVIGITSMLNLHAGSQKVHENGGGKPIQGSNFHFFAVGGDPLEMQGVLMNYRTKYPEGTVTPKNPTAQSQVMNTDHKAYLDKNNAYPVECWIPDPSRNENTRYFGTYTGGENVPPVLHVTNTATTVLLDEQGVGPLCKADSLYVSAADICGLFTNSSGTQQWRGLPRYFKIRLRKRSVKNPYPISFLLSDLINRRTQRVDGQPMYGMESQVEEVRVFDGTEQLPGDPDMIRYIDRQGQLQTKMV

T3: virus-like particles (VLPs) of BK polyomavirus VP-1 protein, serotype Ib2 (BK virus (BKPyV), serotype Ib2, PA …, UniProt P03088 1-362)
T3 construct: native VLPs; also the immunogen; also called VLP Ib2; BK Ib2
T3 chain: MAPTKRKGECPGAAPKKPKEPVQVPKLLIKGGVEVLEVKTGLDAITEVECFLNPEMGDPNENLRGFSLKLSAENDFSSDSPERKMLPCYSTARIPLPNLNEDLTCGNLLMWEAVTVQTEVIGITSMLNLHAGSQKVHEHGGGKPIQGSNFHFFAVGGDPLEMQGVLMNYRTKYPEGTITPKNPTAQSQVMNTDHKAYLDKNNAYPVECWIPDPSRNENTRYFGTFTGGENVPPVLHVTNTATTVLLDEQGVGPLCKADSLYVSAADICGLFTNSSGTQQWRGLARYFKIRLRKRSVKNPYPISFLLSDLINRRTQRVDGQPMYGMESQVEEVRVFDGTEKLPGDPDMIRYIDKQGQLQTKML

T4: virus-like particles (VLPs) of BK polyomavirus VP-1 protein, serotype Ia (BK virus (BKPyV), serotype Ia, UniProt P03088 1-361)
T4 construct: self-assembled native VLPs coated on ELISA plates; also called VLP Ia; BKV VP-1, serotype Ia
T4 chain: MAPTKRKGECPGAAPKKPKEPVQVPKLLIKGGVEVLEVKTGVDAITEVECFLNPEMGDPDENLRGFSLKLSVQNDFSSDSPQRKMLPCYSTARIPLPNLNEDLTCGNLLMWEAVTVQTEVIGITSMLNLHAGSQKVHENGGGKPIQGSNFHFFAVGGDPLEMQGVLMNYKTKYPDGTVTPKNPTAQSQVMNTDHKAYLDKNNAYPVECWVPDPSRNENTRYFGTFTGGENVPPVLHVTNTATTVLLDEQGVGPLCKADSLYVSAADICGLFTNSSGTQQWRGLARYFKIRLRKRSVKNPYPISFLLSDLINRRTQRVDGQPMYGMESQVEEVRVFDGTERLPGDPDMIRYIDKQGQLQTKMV


Tests used:
[1] = biological target: T1, virus-like particles (VLPs) of BK …; assay: ELISA on coated VLP; supernatant 1/10
Protocol: (§1) To do this, the VLPs produced were deposited at a concentration of 1 μg/mL in PBS and incubated overnight at +4° C. The wells were then blocked for 1 h at +37° C. with a PBS/FCS (phosphate-buffered saline/fetal calf serum) mixture. After dilution in a dilution buffer containing FCS, PBS and Tween® 20, the various hybridoma culture supernatants were added for 1 h at +37° C. The wells were washed four times in a row with Wash Buffer and a secondary anti-mouse antibody coupled to peroxidase was added to the 1:2000 dilution for 1 h at +37° C. The wells were washed four more times and the substrate (OPD (ortho phenylene diamine)+H₂O₂) was added for 30 min at room temperature. A stop solution (H₂SO₄ 4N) was then added and each well was read by measuring the absorbance at 492 nm with a spectrophotometer. The value obtained for the average of the control wells (PBS in the first step) is subtracted from the optical density values obtained for each well.

[2] = biological target: T2, virus-like particles (VLPs) of BK …; assay: ELISA on coated VLP; supernatant 1/10
Protocol: as §1

[3] = biological target: T3, virus-like particles (VLPs) of BK …; assay: ELISA on coated VLP; supernatant 1/10
Protocol: as §1

[4] = biological target: T4, virus-like particles (VLPs) of BK …; assay: ELISA on coated VLP; supernatant 1/10
Protocol: as §1

[5] = biological target: T1, virus-like particles (VLPs) of BK …; assay: ELISA on coated VLP; supernatant 1/80
Protocol: as §1

[6] = biological target: T2, virus-like particles (VLPs) of BK …; assay: ELISA on coated VLP; supernatant 1/80
Protocol: as §1

[7] = biological target: T3, virus-like particles (VLPs) of BK …; assay: ELISA on coated VLP; supernatant 1/80
Protocol: as §1

[8] = biological target: T4, virus-like particles (VLPs) of BK …; assay: ELISA on coated VLP; supernatant 1/80
Protocol: as §1

[9] = biological target: T1, virus-like particles (VLPs) of BK …; assay: ELISA on coated VLP; supernatant 1/20 480
Protocol: as §1

[10] = biological target: T3, virus-like particles (VLPs) of BK …; assay: ELISA on coated VLP; supernatant 1/20 480
Protocol: as §1

[11] = biological target: T4, virus-like particles (VLPs) of BK …; assay: ELISA on coated VLP; supernatant 1/20 480
Protocol: as §1

[12] = biological target: T3, virus-like particles (VLPs) of BK …; assay: ELISA on coated VLP; supernatant 1/320
Protocol: as §1

[13] = biological target: T4, virus-like particles (VLPs) of BK …; assay: ELISA on coated VLP; supernatant 1/320
Protocol: as §1

Binder | OD 492 nm [1] [OD] | OD 492 nm [2] [OD] | OD 492 nm [3] [OD] | OD 492 nm [4] [OD] | OD 492 nm [5] [OD] | OD 492 nm [6] [OD] | OD 492 nm [7] [OD] | OD 492 nm [8] [OD] | OD 492 nm [9] [OD] | OD 492 nm [10] [OD] | OD 492 nm [11] [OD] | OD 492 nm [12] [OD] | OD 492 nm [13] [OD]
monoclonal antibody ‘F6’ secreted by clone BK6A2F6 (antibody) heavy: EVQLQQSGPELVKPGASVKISCKASGYSFTGYFMNWVKQSHGKSLEWIGRINPYNGDTFYNQKFKGKATLTVDKSSSTAHMELLSLTSEDSAVYYCGSYYYGDYFDYWGQGTTLTVSSAKTTPPSVYPLAPGSAAQTNSMVTLGCLVKGYFPEPVTVTWNSGSLSSGVHTFPAVLQSDLYTLSSSVTVPSSTWPSETVTCNVAHPASSTKVDKKIVPRDCGCKPCICTVPEVSSVFIFPPKPKDVLTITLTPKVTCVVVDISKDDPEVQFSWFVDDVEVHTAQTQPREEQFNSTFRSVSELPIMHQDWLNGKEFKCRVNSAAFPAPIEKTISKTKGRPKAPQVYTIPPPKEQMAKDKVSLTCMITDFFPEDITVEWQWNGQPAENYKNTQPIMDTDGSYFVYSKLNVQKSNWEAGNTFTCSVLHEGLHNHHTEKSLSHSPGK light: […] | 3 | 3.25 | 2.7 | 3.08 | 0.44 | 3.11 | 0.59 | 3.26 | 0.1 | 0.11 | 0.27 | 0.29 | 3.16
monoclonal antibody ‘H6’ secreted by clone BK6A2H6 (antibody, V domains shown) VH: EVQLQQSGPELVKPGASVKISCKASGYSFTGYFMNWVKQSHGKSLEWIGRINPYNGDTFYNQKFKGKATLTVDKSSSTAHMELLSLTSEDSAVYYCGSYYYGDYFDYWGQGTTLTVSS VL: SIVMTQIPKFLLVSEGDRVTITCKASQSVSNDVAWYQQKSGQSPKLLIYYASNRYTGVPDRFTGSGYGTDFTFTISTVQAEDLAVYFCQQDYSSPLTFGAGTKLELKR | 2.96 | 3.29 | 1.71 | 2.99 | 0.22 | 3.14 | 0.49 | 3.13 | 0.06 | 0.06 | 0.16 | 0.29 | 3.03
